Values of other authors in PMC9154193.

Legend:
ULBP3 (Homo sapiens) = ULBP3 (Homo sapiens) (UniProt Q9BZM4)
Grb2 SH3 (Homo sapiens) = Grb2 SH3 (Homo sapiens) (UniProt P62993)
Lck SH2 (Homo sapiens) = Lck SH2 (Homo sapiens) (UniProt P06239)
Chain of UniProt P06239 (P06239 124-227): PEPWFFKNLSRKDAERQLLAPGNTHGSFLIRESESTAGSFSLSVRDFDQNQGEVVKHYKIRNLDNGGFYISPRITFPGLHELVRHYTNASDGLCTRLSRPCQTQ

Chain of UniProt Q9BZM4 (Q9BZM4 30-217): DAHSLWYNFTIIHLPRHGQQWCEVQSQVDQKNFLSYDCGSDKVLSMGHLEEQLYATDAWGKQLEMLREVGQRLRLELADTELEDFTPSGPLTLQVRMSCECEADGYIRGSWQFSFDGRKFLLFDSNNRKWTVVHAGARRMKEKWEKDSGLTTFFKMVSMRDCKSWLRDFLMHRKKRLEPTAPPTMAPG
Chain of UniProt P62993 (P62993 156-215): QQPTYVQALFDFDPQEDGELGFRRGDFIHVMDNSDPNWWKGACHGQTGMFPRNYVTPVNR

NKG2D (from UniProt P26718)
Kd (ULBP3 (Homo sapiens)): 4 µM

Vav1 SH3 (from UniProt P15498)
Kd (Grb2 SH3 (Homo sapiens)): 16.8 µM

Vav1 phospho-tyrosine region (from UniProt P15498)
Kd (Lck SH2 (Homo sapiens)): 1.39 µM
